Laboratory results taken from PMC2891263 (Biochemistry, 2010).
Values belong to the molecule of their own block, whether it stands above or below them.

Legend:
[1] = target: rhodamine-labeled MetJ (MetJ-A1C-rhodamine) (E. coli) (UniProt P0A8U6); experiment: AUC
AUC = target: the molecule itself; experiment: AUC

stoichiometry N [1]: 2
Molecule: rhodamine-labeled MetJ (MetJ-A1C-rhodamine) (from UniProt P0A8U6 1-105) (natural protein)

B1: unlabeled MetJ (methionine repressor protein) (natural protein, E. coli, UniProt P0A8U6 1-105, looked up)
chain: MAEWSGEYISPYAEHGKKSEQVKKITVSIPLKVLKILTDERTRRQVNNLRHATNSELLCEAFLHAFTGQPLPDDADLRKERSDEIPEAAKEIMREMGINPETWEY
stoichiometry N (AUC): 2
